Experimental data as given in patent US20040175785A1, “Increasing bioavailability of carotenoids” (priority 2001, published 2004).

Assay: Enzymatic deesterification of paprika oleoresin carotenoids, HPLC determination
Assay type: biochemical
Experimental: HPLC was conducted on a Shimadzu LC-10 AT equipped with SCL-10A Shimadzu diode array detector. Photodiode array measurements of spectral properties from the individual peaks (from 260 to 540 nm) were determined at the upslope, apex and downslope. The column (Merck RP-18e 3.4×250 […], 5-μm particles) was used for HPLC separations. The peaks were detected at 450 and 474 nm.
Deesteriflcation paprika oleoresin by enzymes: Paprika oleoresin (20 mg) was mixed with TWEEN-20 (200 μl) or deoxycholate (100 mg) and 10 ml of H2O. The emulsion has been shaken at 37° C. for 24 hours. Extraction of carotenoids was performed by the addition of 4 ml of ethanol and 5 ml of hexane. The extraction with hexane was done repeatedly until no color could be observed in the extracts. The combined hexane extracts were washed with water (25 ml) and dried over anhydrous sodium sulfate for HPLC determination of the carotenoids.

B1: pancreatic lipase: lipase pancreatic from porcine, obtained from Sigma Chemical Co. (protein, UniProt P00591 1-450, looked up)
Pancreatic triacylglycerol …: SEVCFPRLGCFSDDAPWAGIVQRPLKILPWSPKDVDTRFLLYTNQNQNNYQELVADPSTITNSNFRMDRKTRFIIHGFIDKGEEDWLSNICKNLFKVESVNCICVDWKGGSRTGYTQASQNIRIVGAEVAYFVEVLKSSLGYSPSNVHVIGHSLGSHAAGEAGRRTNGTIERITGLDPAEPCFQGTPELVRLDPSDAKFVDVIHTDAAPIIPNLGFGMSQTVGHLDFFPNGGKQMPGCQKNILSQIVDIDGIWEGTRDFVACNHLRSYKYYADSILNPDGFAGFPCDSYNVFTANKCFPCPSEGCPQMGHYADRFPGKTNGVSQVFYLNTGDASNFARWRYKVSVTLSGKKVTGHILVSLFGNEGNSRQYEIYKGTLQPDNTHSDEFDSDVEVGDLQKVKFIWYNNNVINPTLPRVGASKITVERNDGKVYDFCSQETVREEVLLTLNPC
extent of deesterification of paprika carotenoids (general statement, "shown herein"): to a very limited extent
deesterification in similar assays with other lipases, compared with lipase amano 30 (similar assays to FIGS. 3 and 4): far poorer results
